From publication PMC10786891, “Massively parallel profiling of RNA-targeting CRISPR-Cas13d”
Substitutions are numbered along the chain they refer to. In names and notes the source's numbering stands.

T1: EsCas13d, nuclease-dead (Eubacterium siraeum, UniProt B0MS50, R295A;H300A;R849A;H854A)
T1 sequence: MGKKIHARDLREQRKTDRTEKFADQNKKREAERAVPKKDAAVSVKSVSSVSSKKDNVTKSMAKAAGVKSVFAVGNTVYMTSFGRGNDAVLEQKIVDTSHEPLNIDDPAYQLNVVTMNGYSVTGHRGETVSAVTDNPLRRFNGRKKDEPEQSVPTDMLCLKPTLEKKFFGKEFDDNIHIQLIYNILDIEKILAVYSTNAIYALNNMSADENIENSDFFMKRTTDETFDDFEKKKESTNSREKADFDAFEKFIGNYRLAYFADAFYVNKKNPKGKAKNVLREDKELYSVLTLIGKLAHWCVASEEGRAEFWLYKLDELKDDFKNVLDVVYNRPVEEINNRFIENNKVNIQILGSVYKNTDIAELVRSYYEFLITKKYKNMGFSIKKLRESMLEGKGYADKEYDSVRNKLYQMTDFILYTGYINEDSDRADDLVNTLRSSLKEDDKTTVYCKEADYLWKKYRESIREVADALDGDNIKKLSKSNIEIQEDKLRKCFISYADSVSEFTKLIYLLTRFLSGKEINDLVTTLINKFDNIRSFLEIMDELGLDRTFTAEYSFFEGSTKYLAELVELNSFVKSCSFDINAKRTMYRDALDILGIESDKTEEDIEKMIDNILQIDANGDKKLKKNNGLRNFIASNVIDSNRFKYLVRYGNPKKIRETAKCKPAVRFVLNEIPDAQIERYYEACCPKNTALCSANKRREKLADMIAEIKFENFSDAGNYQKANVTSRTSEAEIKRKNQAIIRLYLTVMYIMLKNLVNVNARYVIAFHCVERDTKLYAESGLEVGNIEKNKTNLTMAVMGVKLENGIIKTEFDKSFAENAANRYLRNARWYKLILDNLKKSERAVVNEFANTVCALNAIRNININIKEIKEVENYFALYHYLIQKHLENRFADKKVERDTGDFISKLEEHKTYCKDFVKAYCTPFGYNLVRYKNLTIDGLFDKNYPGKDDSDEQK

B1: target 1 C7A,A16G (mixed)
RNA 1: CACCCGUGCAAAAAUGCAGGGGUCUAAAACUGAGCGGAUAACCUCUCUAUGG
RNA 2: GGGAAUGGAUCCACAUCUACGAAUUCGUACCAUAGGGAGGUUAUACGCUCACCGAGAUCGGAAGAGCACACGU
B2: target 1 insG 3' of 7,insG 3' of 2 (mixed)
RNA 1: B1 RNA 1
RNA 2: GGGAAUGGAUCCACAUCUACGAAUUCGUACCAUAGAGAGGUUAUCGCGCUCGACCGAGAUCGGAAGAGCACACGU
B3: target 1 C6G,U19C (mixed)
RNA 1: B1 RNA 1
RNA 2: B1 RNA 2 with U33C, G36A, A45C, C46G
B4: target 1 A20C,C22U (mixed)
RNA 1: B1 RNA 1
RNA 2: B1 RNA 2 with C30U, A32C, G36A, A45C
B5: target 2 MT 5'PFS UCA 3'PFS AAC (mixed)
RNA 1: CACCCGUGCAAAAUUGCAGGGGUCUAAAACCUUCUCCAAAUUGUUUCAUCCU
RNA 2: GGGAAUGGAUCCACAUCUACGAAUUCUCAAGGAUGAAACAAUUUGGAGAAGAACAGAUCGGAAGAGCACACGU
B6: target 2 MT 5'PFS AGG 3'PFS UAC (mixed)
RNA 1: B5 RNA 1
RNA 2: B5 RNA 2 with U27A, C28G, A29G, A52U
B7: target 2 MT 5'PFS UCA 3'PFS AAA (mixed)
RNA 1: B5 RNA 1
RNA 2: B5 RNA 2 with C54A
B8: target 2 MT 5'PFS GUA 3'PFS AGC (mixed)
RNA 1: B5 RNA 1
RNA 2: B5 RNA 2 with U27G, C28U, A53G
B9: target 2 MT 5'PFS CAC 3'PFS UCA (mixed)
RNA 1: B5 RNA 1
RNA 2: B5 RNA 2 with U27C, C28A, A29C, A52U, A53C, C54A
B10: target 2 MT 5'PFS GUA 3'PFS AGG (mixed)
RNA 1: B5 RNA 1
RNA 2: B5 RNA 2 with U27G, C28U, A53G, C54G
B11: target 2 MT 5'PFS CAC 3'PFS UCG (mixed)
RNA 1: B5 RNA 1
RNA 2: B5 RNA 2 with U27C, C28A, A29C, A52U, A53C, C54G
B12: target 2 MT 5'PFS GGU 3'PFS AAG (mixed)
RNA 1: B5 RNA 1
RNA 2: B5 RNA 2 with U27G, C28G, A29U, C54G
B13: target 2 MT 5'PFS UGG 3'PFS CCA (mixed)
RNA 1: B5 RNA 1
RNA 2: B5 RNA 2 with C28G, A29G, A52C, A53C, C54A
B14: target 2 MT 5'PFS AGG 3'PFS AAC (mixed)
RNA 1: B5 RNA 1
RNA 2: B5 RNA 2 with U27A, C28G, A29G
B15: target 2 MT 5'PFS CAC 3'PFS UCC (mixed)
RNA 1: B5 RNA 1
RNA 2: B5 RNA 2 with U27C, C28A, A29C, A52U, A53C
B16: target 2 MT 5'PFS UCA 3'PFS AAU (mixed)
RNA 1: B5 RNA 1
RNA 2: B5 RNA 2 with C54U
B17: target 2 MT 5'PFS CGC 3'PFS UAU (mixed)
RNA 1: B5 RNA 1
RNA 2: B5 RNA 2 with U27C, C28G, A29C, A52U, C54U
B18: target 2 MT 5'PFS UAU 3'PFS GCA (mixed)
RNA 1: B5 RNA 1
RNA 2: B5 RNA 2 with C28A, A29U, A52G, A53C, C54A
B19: target 2 MT 5'PFS CUC 3'PFS ACA (mixed)
RNA 1: B5 RNA 1
RNA 2: B5 RNA 2 with U27C, C28U, A29C, A53C, C54A
B20: target 2 MT 5'PFS GGU 3'PFS AAC (mixed)
RNA 1: B5 RNA 1
RNA 2: B5 RNA 2 with U27G, C28G, A29U
B21: target 2 MT 5'PFS GUG 3'PFS CUU (mixed)
RNA 1: B5 RNA 1
RNA 2: B5 RNA 2 with U27G, C28U, A29G, A52C, A53U, C54U
B22: target 2 MT 5'PFS GGU 3'PFS AAA (mixed)
RNA 1: B5 RNA 1
RNA 2: B5 RNA 2 with U27G, C28G, A29U, C54A
B23: target 2 MT 5'PFS UCA 3'PFS AAG (mixed)
RNA 1: B5 RNA 1
RNA 2: B5 RNA 2 with C54G
B24: target 2 MT 5'PFS UAG 3'PFS UUU (mixed)
RNA 1: B5 RNA 1
RNA 2: B5 RNA 2 with C28A, A29G, A52U, A53U, C54U
B25: target 2 MT 5'PFS CUC 3'PFS ACC (mixed)
RNA 1: B5 RNA 1
RNA 2: B5 RNA 2 with U27C, C28U, A29C, A53C
B26: target 2 MT 5'PFS AGG 3'PFS AAU (mixed)
RNA 1: B5 RNA 1
RNA 2: B5 RNA 2 with U27A, C28G, A29G, C54U
B27: target 2 MT 5'PFS CGG 3'PFS AGA (mixed)
RNA 1: B5 RNA 1
RNA 2: B5 RNA 2 with U27C, C28G, A29G, A53G, C54A
B28: target 2 MT 5'PFS UCU 3'PFS CAA (mixed)
RNA 1: B5 RNA 1
RNA 2: B5 RNA 2 with A29U, A52C, C54A
B29: target 2 MT 5'PFS CGG 3'PFS AGC (mixed)
RNA 1: B5 RNA 1
RNA 2: B5 RNA 2 with U27C, C28G, A29G, A53G
B30: target 2 MT 5'PFS GUA 3'PFS AGA (mixed)
RNA 1: B5 RNA 1
RNA 2: B5 RNA 2 with U27G, C28U, A53G, C54A
B31: target 2 MT 5'PFS CGG 3'PFS AGG (mixed)
RNA 1: B5 RNA 1
RNA 2: B5 RNA 2 with U27C, C28G, A29G, A53G, C54G
B32: target 2 MT 5'PFS UAG 3'PFS UCG (mixed)
RNA 1: B5 RNA 1
RNA 2: B5 RNA 2 with C28A, A29G, A52U, A53C, C54G
B33: target 2 MT 5'PFS UGG 3'PFS CCU (mixed)
RNA 1: B5 RNA 1
RNA 2: B5 RNA 2 with C28G, A29G, A52C, A53C, C54U
B34: target 2 MT 5'PFS GCU 3'PFS CUC (mixed)
RNA 1: B5 RNA 1
RNA 2: B5 RNA 2 with U27G, A29U, A52C, A53U
B35: target 2 MT 5'PFS UCU 3'PFS CAG (mixed)
RNA 1: B5 RNA 1
RNA 2: B5 RNA 2 with A29U, A52C, C54G
B36: target 2 MT 5'PFS CUC 3'PFS ACG (mixed)
RNA 1: B5 RNA 1
RNA 2: B5 RNA 2 with U27C, C28U, A29C, A53C, C54G
B37: target 2 MT 5'PFS CAC 3'PFS UCU (mixed)
RNA 1: B5 RNA 1
RNA 2: B5 RNA 2 with U27C, C28A, A29C, A52U, A53C, C54U

Molecular target: T1, EsCas13d, nuclease-dead
Assay: crRNA (strand 1, pre-loaded); Mg2+; 40 mM Tris-HCl pH 7.5, 150 mM NaCl, 6 mM MgCl2, 1 mM DTT, 0.1% Tween-20, 0.2 mg/ml BSA; 25 C; 10 min per concentration, then washed
Conditions: tags: His6-TwinStrep-SUMO cleaved; N-terminal SNAP kept (SNAP-Surface 488); label: 3' end held by stalled T7 RNA polymerase

| Binder | Kd |
| --- | --- |
| B1 | 30 ± 1.9 nM |
| B2 | 6.9 ± 0.4 nM |
| B3 | 29.8 ± 2.8 nM |
| B4 | 49 ± 6 nM |
| B5 | 7.5 ± 1.1 nM |
| B6 | 7.3 ± 1.2 nM |
| B7 | 4.2 ± 0.9 nM |
| B8 | 6.4 ± 0.6 nM |
| B9 | 4.1 ± 0.6 nM |
| B10 | 8.6 ± 0.6 nM |
| B11 | 3.9 ± 0.8 nM |
| B12 | 12.7 ± 1.2 nM |
| B13 | 15.3 ± 3.1 nM |
| B14 | 8.5 ± 1.7 nM |
| B15 | 4.9 ± 0.7 nM |
| B16 | 5.2 ± 0.7 nM |
| B17 | 3.7 ± 0.4 nM |
| B18 | ~70 nM |
| B19 | 3.1 ± 1.4 nM |

| Binder | Kd |
| --- | --- |
| B20 | 13.4 ± 1.4 nM |
| B21 | 12.8 ± 1 nM |
| B22 | 7.1 ± 1 nM |
| B23 | 6.7 ± 1 nM |
| B24 | 6.5 ± 0.7 nM |
| B25 | 2.3 ± 0.4 nM |
| B26 | 4.7 ± 0.9 nM |
| B27 | 4.1 ± 0.7 nM |
| B28 | 10.5 ± 2.1 nM |
| B29 | 4.7 ± 0.9 nM |
| B30 | 6.5 ± 0.8 nM |
| B31 | 4.5 ± 0.5 nM |
| B32 | 4.1 ± 0.5 nM |
| B33 | 68 ± 33 nM |
| B34 | 24 ± 8 nM |
| B35 | 7.6 ± 1.1 nM |
| B36 | 1.68 ± 0.18 nM |
| B37 | 4.7 ± 0.6 nM |
